From patent publication US20220396635A1 (UNIVERSIT T STUTTGART, published 2022)

B1: scDb/Fab-Fc (2-1)+1, trivalent bispecific anti-FAPxanti-CD3 (bispecific antibody, human IgG1, kappa)
chain: QVQLVQSGAEVKKPGSSVKVSCKASGGTFSGYTMNWVRQAPGQGLEWMGLINPYKGVSTYNGKFKDRVTITADKSTSTAYMELSSLRSEDTAVYYCARSGYYGDSDWYFDVWGQGTLVTVSSGGGGSDIQMTQSPSSLSASVGDRVTITCRASKSVSTSAYSYMHWYQQKPGKAPKLLIYLASNLESGVPSRFSGSGSGTDFTLTISSLQPEDFATYYCQHSRELPYTFGQGTKLEIKRGGGGSGGGGSQVQLVQSGAEVKKPGASVKVSCKASGYTFTENIIHWVRQAPGQGLEWMGWFHPGSGSIKYNEKFKDRVTMTADTSTSTVYMELSSLRSEDTAVYYCARHGGTGRGAMDYWGQGTLVTVGGGGSDIQMTQSPSSLSASVGDRVTITCRASQDIRNYLNWYQQKPGKAPKLLIYYTSRLHSGVPSRFSGSGSGTDFTFTISSLQPEDIATYYCQQGNTLPWTFGQGTKLEIKRAAADKTHTCPPCPAPPVAGPSVFLFPPKPKDTLMISRTPEVTCVVVDVSHEDPEVKFNWYVDGVEVHNAKTKPREEQYNSTYRVVSVLTVLHQDWLNGKEYKCKVSNKGLPSSIEKTISKAKGQPREPQVCTLPPSRDELTKNQVSLSCAVKGFYPSDIAVEWESNGQPENNYKTTPPVLDSDGSFFLVSKLTVDKSRWQQGNVFSCSVMHEALHNHYTQKSLSLSPGK
heavy: QVQLVQSGAEVKKPGASVKVSCKASGYTFTENIIHWVRQAPGQGLEWMGWFHPGSGSIKYNEKFKDRVTMTADTSTSTVYMELSSLRSEDTAVYYCARHGGTGRGAMDYWGQGTLVTVSSASTKGPSVFPLAPSSKSTSGGTAALGCLVKDYFPEPVTVSWNSGALTSGVHTFPAVLQSSGLYSLSSVVTVPSSSLGTQTYICNVNHKPSNTKVDKKVEPKSCDKTHTCPPCPAPPVAGPSVFLFPPKPKDTLMISRTPEVTCVVVDVSHEDPEVKFNWYVDGVEVHNAKTKPREEQYNSTYRVVSVLTVLHQDWLNGKEYKCKVSNKGLPSSIEKTISKAKGQPREPQVYTLPPCRDELTKNQVSLWCLVKGFYPSDIAVEWESNGQPENNYKTTPPVLDSDGSFFLYSKLTVDKSRWQQGNVFSCSVMHEALHNHYTQKSLSLSPGK
light: DIQMTQSPSSLSASVGDRVTITCRASKSVSTSAYSYMHWYQQKPGKAPKLLIYLASNLESGVPSRFSGSGSGTDFTLTISSLQPEDFATYYCQHSRELPYTFGQGTKLEIKRRTVAAPSVFIFPPSDEQLKSGTASVVCLLNNFYPREAKVQWKVDNALQSGNSQESVTEQDSKDSTYSLSSTLTLSKADYEKHKVYACEVTHQGLSSPVTKSFNRGEC
notes: also called scDbCD3xFAP-Fc(hole)Δab + VHFAP-CH1-Fc(knob)Δab + VLFAP-CLκ
B2: scDb/scFv-Fc (1-1)+2, trivalent bispecific anti-FAPxanti-CD3 (bispecific antibody)
chain 1: QVQLVQSGAEVKKPGASVKVSCKASGYTFTENIIHWVRQAPGQGLEWMGWFHPGSGSIKYNEKFKDRVTMTADTSTSTVYMELSSLRSEDTAVYYCARHGGTGRGAMDYWGQGTLVTVSSGGGGSDIQMTQSPSSLSASVGDRVTITCRASKSVSTSAYSYMHWYQQKPGKAPKLLIYLASNLESGVPSRFSGSGSGTDFTLTISSLQPEDFATYYCQHSRELPYTFGQGTKLEIKRGGGGSGGGGSQVQLVQSGAEVKKPGASVKVSCKASGYTFTENIIHWVRQAPGQGLEWMGWFHPGSGSIKYNEKFKDRVTMTADTSTSTVYMELSSLRSEDTAVYYCARHGGTGRGAMDYWGQGTLVTVGGGGSDIQMTQSPSSLSASVGDRVTITCRASKSVSTSAYSYMHWYQQKPGKAPKLLIYLASNLESGVPSRFSGSGSGTDFTLTISSLQPEDFATYYCQHSRELPYTFGQGTKLEIKRAAADKTHTCPPCPAPPVAGPSVFLFPPKPKDTLMISRTPEVTCVVVDVSHEDPEVKFNWYVDGVEVHNAKTKPREEQYNSTYRVVSVLTVLHQDWLNGKEYKCKVSNKGLPSSIEKTISKAKGQPREPQVCTLPPSRDELTKNQVSLSCAVKGFYPSDIAVEWESNGQPENNYKTTPPVLDSDGSFFLVSKLTVDKSRWQQGNVFSCSVMHEALHNHYTQKSLSLSPGK
chain 2: DIQMTQSPSSLSASVGDRVTITCRASQDIRNYLNWYQQKPGKAPKLLIYYTSRLHSGVPSRFSGSGSGTDFTFTISSLQPEDIATYYCQQGNTLPWTFGQGTKLEIKRGGGGSGGGGSGGGGSQVQLVQSGAEVKKPGSSVKVSCKASGGTFSGYTMNWVRQAPGQGLEWMGLINPYKGVSTYNGKFKDRVTITADKSTSTAYMELSSLRSEDTAVYYCARSGYYGDSDWYFDVWGQGTLVTVSSAAADKTHTCPPCPAPPVAGPSVFLFPPKPKDTLMISRTPEVTCVVVDVSHEDPEVKFNWYVDGVEVHNAKTKPREEQYNSTYRVVSVLTVLHQDWLNGKEYKCKVSNKGLPSSIEKTISKAKGQPREPQVYTLPPCRDELTKNQVSLWCLVKGFYPSDIAVEWESNGQPENNYKTTPPVLDSDGSFFLYSKLTVDKSRWQQGNVFSCSVMHEALHNHYTQKSLSLSPGK
notes: also called scDbFAPxFAP-Fc(hole)Δab + scFvhuU3-Fc(knob)Δab

Target: T1, FAP (UniProt Q12884 1-760, limits assumed)
T1 construct: whole, on cells; also called FAP on HT1080-FAP cells
Assay: flow cytometry, serial dilution on HT1080-FAP cells (FAP-expressing), PE anti-human Fc detection
Method: Binding of trivalent, bispecific fusion proteins to FAP-expressing (HT1080-FAP) cell lines was analyzed by flow cytometry. 2×10⁵ cells/well were incubated with a serial dilution of trivalent, bispecific antibodies for 1 h at 4° C. followed by detection using a PE-conjugated anti-human Fc antibody (Jackson ImmunoResearch Laboratories Inc).

Binder | EC50 [nM]
B1 | 0.4
B2 | 1
